Assay results as given in patent US20040115667A1, “Dna-sequences, which code for an apoptosis signal transduction protein” (priority 2000, published 2004).
“Also recorded” adds a separate entry of the source. Peptide text beside a SMILES is read from it. * marks the point of attachment. Cbz = O=C(OCc1ccccc1)*; CH2F = FC*

Legend:
[1] = tested on: Bcl-rambo-induced cell death (caspase-3 activity) in 293T cells; experiment: Effect of apoptosis inhibitors on apoptotic activity of full-length Bcl-rambo in 293T cells; type: cell-based, human
Description: The effect of different apoptosis inhibitors on the apoptotic activity of Bcl-rambo is investigated in FIG. 6. For this, 293T cells were transfected for 27 hours (shown in FIG. 6A) with 2 μg of Bcl-rambo expression plasmid and 0.5 μg of expression vectors encoding various apoptosis inhibitors, together with 0.5 μg of β-galactosidase expression vector.
(§1) 293T cells (3×10^5 cells) were sown on 60 mm culture dishes on the day before the transfection and then transiently cotransfected with 2 μg of Bcl-rambo expression plasmids and 0.2 μg of EGFP expression vector (pEGFP-C1, from Clontech) or with 0.5 μg of pCMV-β-galactosidase expression vector. The postnuclear lyzates were then analyzed with regard to the fluorescence intensity of EGFP, the galactosidase activity and the caspase-3 activity using a peptide substrate (Ac-DEVD-AMC, from Alexis). In order to be able to compare the individual measurements, the caspase-3 activity (measured as the number of times it was increased by the induction) was standardized using the fluorescence intensity of EGFP or the β-galactosidase activity.

[2] = tested on: antiapoptotic proteins (Bcl-2, Bcl-XL, Bcl-w, A1, MCL-1, E1B-19K and BHRF1); experiment: Co-immunoprecipitation of Bcl-rambo with antiapoptotic proteins of the Bcl-2 family in 293T cells; type: binding; settings: HA-labeled Bcl-rambo with Flag-labeled antiapoptotic protein
[3] = tested on: proapoptotic proteins Bax, Bak, Bik, Bid, Bim, Bad and Bcl-rambo; experiment: Co-immunoprecipitation of Bcl-rambo with proapoptotic proteins of the Bcl-2 family in 293T cells; type: binding; settings: anti-Flag M2 agarose immunoprecipitation, anti-EE blot, also with z-VAD-fmk
[4] = tested on: caspase-3 activity in 293T cells; experiment: Caspase-3 activity / apoptosis in 293T cells transfected with Bcl-rambo constructs; type: cell-based, human; settings: 2 μg construct, 42 hours; for increase in caspase-3 activity (times increase in activity induced): standardized by EGFP fluorescence
Description: FIG. 5 describes the Bcl-rambo-induced apoptosis which is induced by the C-terminal domain of Bcl-rambo. For this, 293T cells were transfected with 2 μg of various Bcl-rambo constructs, namely mock transfectants, full-length Bcl-rambo (amino acids 1-485), Bcl-rambo without the C-terminal anchor domain (amino acids 1-459), the N-terminal domain of homology with Bcl-2 (amino acids 1-223), the C-terminal domain containing the BHNo region (amino acids 205-485), the C-terminal domain without the anchor region (amino acids 205-459) and, finally, a truncated N-terminal domain (amino acids 1-201). All the abovementioned constructs are depicted diagrammatically in FIG. 5 (right-hand drawing), with the BH regions (BH4 (4), BH3 (3), BH1 (1) and BH2 (2)) and also, if present, the tandem repeats and/or the anchor regions (MA) being shown diagrammatically. The transfection, which took place jointly together with 0.2 μg of an EGFP expression vector, namely pEGFP-C1, lasted for 42 hours. The graph shown in the upper left of FIG. 5 plots the caspase-3 activity (as the times increase in activity induced). The activity in the individual experimental assays was standardized by taking into account the fluorescence intensity of transfected EGFP, i.e. the cotransfection with the EGFP expression vector was used to check the transfection rate in order to ensure that it was possible to compare the results in the different experimental assays.
It follows from the results of the experiments depicted in FIG. 5 that the BHNo domain (and not, for example, the domain having homology with Bcl-2) is responsible for inducing cell death when Bcl-rambo is overexpressed. […] In the case of all the cell extracts, the strength of the expression of the individual constructs in the transfected cells was checked by Western blot analysis using anti-Flag antibody M2 (lower left-hand diagram in FIG. 5).
as §1

[5] = biological target: T1, proapoptotic proteins Bax, Bak, Bik, Bid, Bim, Bad and Bcl-rambo (Homo sapiens, UniProt Q9BXK5); experiment: Co-immunoprecipitation of Bcl-rambo with proapoptotic proteins of the Bcl-2 family in 293T cells; type: binding; settings: co-immunoprecipitation
T1 construct: expressed in transfected cells; host or cells: 293T cells

In the case of COC(=O)C[C@H](NC(=O)[C@H](C)NC(=O)[C@@H](NC(=O)OCc1ccccc1)C(C)C)C(=O)CF [z-VAD-fmk, reference compound] (Cbz-Val-Ala-Asp(OMe)-CH2F), the “suppression of Bcl-rambo-induced cell death by pancaspase inhibitor” value ([1]; not depicted in FIG. 6) is reported as “completely suppressed”.

With “c-IAP2: apoptosis inhibitor of the IAP family, coexpressed” the “blocking of Bcl-rambo-induced cell death by coexpressed apoptosis inhibitor” value ([1]; 293T cells, 27 hours, 2 μg Bcl-rambo plasmid, 0.5 μg inhibitor vector, standardized by β-galactosidase) was “act as inhibitors; also recorded: inhibitory effect”.

B1: amino acids 1-223: N-terminal domain of Bcl-rambo with homology to Bcl-2 (protein, UniProt Q9BXK5 1-223, looked up, fragment)
chain: MASSSTVPLGFHYETKYVVLSYLGLLSQEKLQEQHLSSPQGVQLDIASQSLDQEILLKVKTEIEEELKSLDKEISEAFTSTGFDRHTSPVFSPANPESSMEDCLAHLGEKVSQELKEPLHKALQMLLSQPVTYQAFRECTLETTVHASGWNKILVPLVLLRQMLLELTRRGQEPLSALLQFGVTYLEDYSAEYIIQQGGWGTVFSLESEEEEYPGITAEDSND
In the case of B1, the “interaction with antiapoptotic Bcl-2 family proteins” value [2] is reported as “does not interact with other proteins of the Bcl-2 family”, the “protein/protein interaction with proapoptotic Bcl-2 family proteins” value [3] is reported as “does not interact with other proteins of the Bcl-2 family” and the “effect on cell survival / induction of cell death on overexpression” value (“effect on cell survival / induction” for short) [4] is reported as “no effect on cell survival rate”.

B2: full-length Bcl-rambo: full-length human Bcl-rambo protein, amino acids 1-485, expressed from plasmid (protein, UniProt Q9BXK5 1-485, looked up)
chain: MASSSTVPLGFHYETKYVVLSYLGLLSQEKLQEQHLSSPQGVQLDIASQSLDQEILLKVKTEIEEELKSLDKEISEAFTSTGFDRHTSPVFSPANPESSMEDCLAHLGEKVSQELKEPLHKALQMLLSQPVTYQAFRECTLETTVHASGWNKILVPLVLLRQMLLELTRRGQEPLSALLQFGVTYLEDYSAEYIIQQGGWGTVFSLESEEEEYPGITAEDSNDIYILPSDNSGQVSPPESPTVTTSWQSESLPVSLSASQSWHTESLPVSLGPESWQQIAMDPEEVKSLDSNGAGEKSENNSSNSDIVHVEKEEVPEGMEEAAVASVVLPARELQEALPEAPAPLLPHITATSLLGTREPDTEVITVEKSSPATSLFVELDEEEVKAATTEPTEVEEVVPALEPTETLLSEKEINAREESLVEELSPASEKKPVPPSEGKSRLSPAGEMKPMPLSEGKSILLFGGAAAVAILAVAIGVALALRKK
modifications: full-length
notes: full-length human Bcl-rambo protein, amino acids 1-485, expressed from plasmid
For B2, the “interaction with antiapoptotic Bcl-2 family proteins” value [2] was “not possible to detect any interactions; also recorded: no interactions were observed”, the homodimer formation [5] was “Nor can any homodimers be detected” and the “protein/protein interaction with proapoptotic Bcl-2 family proteins” value [3] was “not possible to detect any protein/protein interaction”. The “effect on cell survival / induction” value [4] was “marked proapoptotic effect” and the “increase in caspase-3 activity (times increase in activity induced)” value [4] was “approx. 70 fold”.

B3: 1-203: truncated N-terminal domain of Bcl-rambo; printed 1-203, elsewhere 1-201 (protein, UniProt Q9BXK5 1-201, looked up, fragment)
chain: MASSSTVPLGFHYETKYVVLSYLGLLSQEKLQEQHLSSPQGVQLDIASQSLDQEILLKVKTEIEEELKSLDKEISEAFTSTGFDRHTSPVFSPANPESSMEDCLAHLGEKVSQELKEPLHKALQMLLSQPVTYQAFRECTLETTVHASGWNKILVPLVLLRQMLLELTRRGQEPLSALLQFGVTYLEDYSAEYIIQQGGWG
For B3, the “effect on cell survival / induction” value [4] was “no effect on cell survival rate”.

B4: C-terminal BHNo domain (amino acids 205-459): C-terminal domain with BHNo region and membrane anchor; range printed as 205-459, probably 205-485 (protein, UniProt Q9BXK5 205-485, looked up, fragment)
chain: SLESEEEEYPGITAEDSNDIYILPSDNSGQVSPPESPTVTTSWQSESLPVSLSASQSWHTESLPVSLGPESWQQIAMDPEEVKSLDSNGAGEKSENNSSNSDIVHVEKEEVPEGMEEAAVASVVLPARELQEALPEAPAPLLPHITATSLLGTREPDTEVITVEKSSPATSLFVELDEEEVKAATTEPTEVEEVVPALEPTETLLSEKEINAREESLVEELSPASEKKPVPPSEGKSRLSPAGEMKPMPLSEGKSILLFGGAAAVAILAVAIGVALALRKK
With B4 the “increase in caspase-3 activity (times increase in activity induced)” value [4] was “approx. 80 fold”.

B5: 205-459 construct: C-terminal domain of Bcl-rambo without the anchor region (amino acids 205-459) (protein, UniProt Q9BXK5 205-459, looked up, fragment)
chain: SLESEEEEYPGITAEDSNDIYILPSDNSGQVSPPESPTVTTSWQSESLPVSLSASQSWHTESLPVSLGPESWQQIAMDPEEVKSLDSNGAGEKSENNSSNSDIVHVEKEEVPEGMEEAAVASVVLPARELQEALPEAPAPLLPHITATSLLGTREPDTEVITVEKSSPATSLFVELDEEEVKAATTEPTEVEEVVPALEPTETLLSEKEINAREESLVEELSPASEKKPVPPSEGKSRLSPAGEMKPMPLSEGKS
With B5 the “effect on cell survival / induction” value [4] was “no longer able to elicit cell death”.
